# Assay: soluble on expression in E. coli; label from the status in PepcDB or PDB records
row,Sequence,soluble on expression in E. coli
1,MKSFQLVATAASGLEAIVGKEVARLGYDPKVENGKVYFEGDLSAIARANLWLRVADRVKIVVGVFKATTFDELFEKTKALPWEDYLPLDAQFPVAGKSVKSTLYSVPDCQAIVKKAIVNRVSEKYRRSGRLMETGALFKLEVSILKDEVTLTIDTSGAGLHKRGYRLAQGSAPIKETMAAALVLLTSWHPDRPFYDPVCGSGTIPIEAALIGQNIAPGFNREFVSETWDWMPKQVWADARQEAEDLANYDQPLNIIGGDIDARLIEIAKQNAVEAGLGDLITFRQLQVADFQTEDEYGVVVANPPYGERLEDEEAVRQLYREMGIVYKRMPTWSVYVLTSYELFEEVYGKKATKKRKLYNGYLRTDLYQYWGPRKPRPKKED,soluble
2,MSLSWYEEWFWSDAYTRVYDHRDDAEAEQLVDLIEHEIAPASGAHILDIGCGRGRHARALVRRGWQVTGLDLSEDAVAAARSRVADDDLDVRASFRVGDMRTPVCDGCADGVVNLFTSFGYFDADAENERALAAMATALRPGGWFLQDFLNAPQVAESLGASVYETEDGRTIHQDRWIEDGRVNKKITVRQNGHTETFQESVRLYTRSDLTAMYERVGLEVVALFGDYDGGNYVPDESPRLLLHAVRPTEGHHHHHH,soluble
3,DGKRVWLSDDELTRFIEQAETPHQRLAFLLAGRVGLRRSEIIEVCPQDLVDGPTGDHIRVWESYAKRDKYREPPVPQEVVTIAETLAYQQDDDEPLLDVAGSTVYRWVRRAADELEEETGDRGWQYLDVHDLRRTWGTYLLEQGVIPSVVMSFGGWEDWDTFRKHYLGEFS,soluble
4,MGSLNGGSPEGVESQDGVDHFRAMIVEFMASKKMQLEFPPSLNSHDRLRVHQIAEEHGLRHDSSGEGKRRFITVSKRAGSHHHHHH,soluble
5,MKQRDSLDEKRRQLTYFTSCNAGTCQCRGFRPVLNHEDETVERRATRAERENDFAPMTRDLETLGSEEIIECRTCGHSISFHAEPLKYLSQEDLDTYTDQISDLQTCCSELSEIDPSHESLQTLYITMQILLKSLRTLTPVDVPFIGKPNFEPESLSPYILVKKFIASRPVDNAEKQRLAEIGTLFLTEMNHWKLEGFQSLADKLNVPLEQGKYRMMYVRMDYYVNMPAKYVSFKQFQTVDIFGEKFTTTFCNYLINVLNTGNYTPFGLSESDLEENSEDLITFATDLRRYLETEDPQSTSTTNRRKDSISTEDVILKYVKRKKPTDHSESSSPRELSTSPVEEPRRRKKEPSSSAKKSPETEESMALLRSLIRAIKFEGDLDAMEPKTKVEFEALNTEVSRGLSALQEEESGLIEFRVIGNDLDPFQHHEQLVHLVELQNLFGAQLPKMPKEYVTRLIFDSRHQNMVILKRDMGVIGGICFRTFPSRGFVEIVFCAITAMEQVKGYGTHLMNHCKDYMIKNKIYHMLTYADEFAIGYFTKQGFSEKLEINDTVYQGWIKEYEGATLMGCHLHPQISYTKFPDFSKGIQALHCGYKSENGAESRGKVFGGLEHLFRESSPQLLELRKVPGTDSLKMHKKSCYHLDERDDSLDSKIGAILKKLTADKNAWPFASPVDVKEVPEYYDHIKHPIDFKTMQEKLKRKAYTHQHLFIADLNRLFQNCYVFNGAEAVYYKYGYKLNELALKLLKTSFPESSWYPELPEQKPLC,not soluble
6,MATARTARSRRKVRKVRDKWKEKVWYEIYATPEFGGVFIGYTPANDPSLVLGRVAETSLRDLTGDPTKHMHRVYFKIFGVTGNKAIAQYYGHDTTREFMKSQIRRRRSRIDAILDVKTQDGHKIRTKAMVLTAYRANTKQKSDIRKKMEEIIKAMAKEKTFPQYVQAMLFGEMAEKIKNECKKIFPIKNVIIYKSEVLSLAKKEENEGFVKEAEEETAEAQELEHHHHHH,soluble
7,SMMDLFETGSYFFYLDGENVTLQPLEVAEGSPLYPGSDGTLSPCQDQMPPEAGSDSSGEEHVLAPPGLQPPHCPGQCLIWACKTCKRKSAPTDRRKAATLRERRRLKKINEAFEALKRRTVANPNQRLPKVEILRSAISYIERLQDLLHRLDQQEKMQELGVDPFSYRPKQENLEGADFLRTCSSQWPSVSDHSRGLVITAKEGGASIDSSASSSLRCLSSIVDSISSEERKLPCVEEVVEK,soluble
8,MPLEAGLLEILACPACHAPLEERDAELICTGQDCGLAYPVRDGIPVLLVDEARRPEAAALEHHHHHH,not soluble
9,MSLTPGRFLGWENADTASRTASDAIAVMDRRTWQALTTGHVELPCRRIHAGLWFRLLRTLLDELNTPLSACGTYAGYLRQVWQGCGHPLRAGQSLWRPYETLNPAIRLQMLEAAATAISLIEVRDISPPGEHAKLFWSELQTGFTSGLPAKPPKPEPVNHWQRAVQAISEAIIEARHDPETARSLFAMASYGRRDPASLEQLRATFAKEGIPPEFLSHYEADGPFACLRQNDGLSDKEGHHHHHH,not soluble
10,AIACGDCVEKEYPNRGTTCLENGSFLLNFAGCAVCSKRDFMLITNRSLKEEDGEEIVTYDRIYHAVSVVWQS,soluble
11,HDTRKIIAKQLGPHTYLVSGRMEIDDVNERFGLSLPESDDYLTVAGFILNSHQNIPQANEVVEIAPYTFTILRSSSTKIELVKMSIDD,not soluble
12,MSLELNGRALSSTIAPRTQAQRILQTQKISSTDLVVVIGLGNPHLIFEVHKSLEPGQVLLLVDEYPELIFPLWDGILEPVMDVPGRHLFLGHSALNLLWNYLESLPVERVSGIRVFRNTASTALNETYYSDLEIKIRKILSSKMSDLLTKFEFERIWVRNTFVNTANFPDSKNPRTRIESLKGKFLDTPAMLVSAGPSLRSQCEWISKVRDKVFLFSCDTSFKALLKFGIVPDGVITLDAQTHSFFHFMGAESSNVPLFADLVSSPSILRSQKFTKIVHSLSAKYVVDASGEFKREVTAGSKTAEKLLGPIGDIQSGGSVATTAFDLLRNLGCKPIFLVGQDLAYSGREEGHHHHHH,not soluble
13,MGNQSTSSKGSDTKKEQITVKHQLDKNGTKVPKNPKKVVVFDFGSLDTLDKLGLDDIVAGLPKQVLPKYLSKFKDDKYADVGSLKEPDFDKVAELDPDLIIISARQSESYKEFSKIAPTIYLGVDTAKYMESFKSDAETIGKIFDKEDKVKDELANIDHSIADVKKTAEKLNKNGLVIMANDGKISAFGPKSRYGLIHDVFGVAPADQNIKASTHGQSVSYEYISKTNPDYLFVIDRGTAIGETSSTKQVVENDYVKNVNAVKNGHVIYLDSATWYLSGGGLESMTQMIKEVKDGLEKLEHHHHHH,soluble
14,MSLTTHGKPVLVATDLSARTDRAVDRATQLAGEWGVRLIVLHAIEPDSRLHARPELANQAMREVLADPEADVDILPALDLAPTAIVEAAKSADCGLIVTGVARFNHVGDYFIGTAVDHVVRHATVPVLVVKQRPHNAYRTIVVATDYSSCSRLALLTAAEFFPDAAIHLVHAYHVPYEAWLRSDEVREDVTREAQRELDAFVLDPAIPANVRQRISAKLVYGETHTVLSSTAYELGADLLVLGTHGSGGYFAAVMGRMAESLLRCADIDTLVVREIGSTGSEGHHHHHH,soluble
15,MSLENPTSIQIWHYYNGQQKMAFDKLVKEFNDTVGAEKGIIVEAFSQGNVVDLSEKVLDSANKKVGSEDVPNIFAAYSDTAYEMDKLGLLVDMDKYISKEELNEYIDEYVEEGRINSKDEFKLFPIAKSTEILMLNKTDWDKFAKATNSNINDIKTIEGLVETSKKYYEWTDSLTKEPNDGKAFFGRDALANYIIIGSKQLGVEIFSVKDGKVTLNIDEKVMKKLWDNFYVPYINGYFASYGKFRSDDAKTGDILALVGSSSGAAYFPDRVMLNDNESYNIETSVFQAPRFKGEGKYAVQQGAGMAVTKSTKEEEYASVEFLKWFTDKEPNIKFSIASGYLPVKKKTNDLDVIKEVMKKDNLSLSDKVEGSIASSIEQINSCNLYTNKAFDGGTKARQILEYSMLDKAKEDSNKINELVKSGTSKKDAVAQFNNDKNFKTWFEIFKAELENAIKEGHHHHHH,soluble
16,MGSDKIHHHHHHMDSSMPSTPHASAYPIGKPGQVWGEEEKSLWLNKQVIQRSYAEQVLALILDPASISANTADPMETTATQSNAHPEITSALELVHYNTLAYNTLHQGASDYPVYLFKSRHWDETKPNVLITGGVHGYETSGVQGAIRFLRTKAQHYCQHANLIIVPCLSPWGYETINRWNPHAIDPNRSFVHDTAPHDTAMTQAKAQASKVQLSDVQEAHALMAALGELAVNFSLHIDLHETTDSDNAEFRPALAARDGTSYDNWDIPDGFYLVGDTLKPQAEFQKAVINAVNAITHIAPAGEHARLIGVPIAQFGVINYPTKALGLCAGMTDATYCTTTEVYPDSPLVDDENCILAQVAAITGALDYVIKNR,not soluble
